The values below come from publication PMC4558205 (Structure (London, England : 1993), 2015).

For orientation: stoichiometry N means a count of units in the complex or per binding partner.

The data set “crystal structure” deals with the molecule itself. Nature of the data set: crystal structure.
Data set [1] addresses Mj0480, archaeal DUF106 protein from Methanocaldococcus jannaschii (Methanocaldococcus jannaschii, UniProt Q57904). The data set can be described thus: SEC. Background: SEC sorts molecules by how far they enter the pores of the column.

B1: Mj0480, archaeal DUF106 protein from Methanocaldococcus jannaschii (natural protein, UniProt Q57904 1-198, looked up)
chain: MFGSIFDIYYKTLDAIFMPIIKVLHPALAILIIAIIVSLIINIATKLLVDQKRVAELKKEIQEFQVKFKKMSKNPEMMEKLQEEQQRIMQLNAELMKMSFRPMIYTWVPIILIFIYLRHVYGFGGVYQELNPGWNGVVVYLPIILSKILFIDFWHWLGSIFYKGGFKIVSNTALGWLGWYILCSFATSTVLRKILGIK
For the molecule B1, the binding result in the data set “crystal structure” is listed as “binds”.

B2: synthetic antibody fragment (sAB) M1 (Fab, V domains shown)
VH: EVQLVESGGGLVQPGGSLRLSCAASGFNFSSSSIHWVRQAPGKGLEWVASISPSYGYTYYADSVKGRFTISADTSKNTAYLQMNSLRAEDTAVYYCARGIWSYWYMVYPHDNYGMDYWGQGTLVTVSS
VL: DIQMTQSPSSLSASVGDRVTITCRASQSVSSAVAWYQQKPGKAPKLLIYSASSLYSGVPSRFSGSRSGTDFTLTISSLQPEDFATYYCQQSSSRPVTFGQGTKVEIK
For B2, the “stoichiometry N” value in data set [1] was 1.
